From the Human Domainome abundance scans (Beltran et al. 2025)
± gives the uncertainty stated by the source.

B1: Peripheral plasma membrane protein CASK, residues 488 to 569; numbered along this chain, O14936 (parent)
chain: VRLVQFQKNTDEPMGITLKMNELNHCIVARIMHGGMIHRQGTLHVGDEIREINGISVANQTVEQLQKMLREMRGSITFKIVP

Variants of: B1
Test: abundance fitness (aPCA) (normalised: wild type 0, dead -1); higher = more abundant; growth selection in yeast, the domain comes from the species named
Conditions: Homo sapiens

Abundance fitness, by site and new letter:
N21: L -0.228 ± 0.025, T -0.041 ± 0.027, Y -0.282 ± 0.041, H -0.25 ± 0.038, R -0.268 ± 0.025, Q -0.226 ± 0.034, C -0.201 ± 0.042, S -0.045 ± 0.024, V -0.145 ± 0.028, K -0.186 ± 0.031, E -0.136 ± 0.032, P -0.33 ± 0.031, M -0.258 ± 0.033, I -0.201 ± 0.041, W -0.6 ± 0.044, F -0.415 ± 0.05, G -0.186 ± 0.026
E22: G 0.022 ± 0.023, L -0.135 ± 0.032, Y 0.028 ± 0.066, T -0.021 ± 0.038, C -0.089 ± 0.045, R 0.001 ± 0.025, H -0.037 ± 0.05, M -0.078 ± 0.041, K -0.004 ± 0.042, P -0.03 ± 0.04, S -0.022 ± 0.031, D 0.031 ± 0.036, V -0.079 ± 0.027, I -0.185 ± 0.067, W -0.138 ± 0.033, N -0.075 ± 0.071, Q 0.008 ± 0.039, F -0.277 ± 0.074
Q7: E 0.048 ± 0.026, D 0.079 ± 0.032, H 0.009 ± 0.043, N 0.02 ± 0.043, Y 0.021 ± 0.043, S -0.042 ± 0.025, K -0.017 ± 0.029, L -0.027 ± 0.025, F -0.021 ± 0.041, A -0.025 ± 0.024, W -0.037 ± 0.025, I 0.074 ± 0.036, V 0.001 ± 0.022, C 0.021 ± 0.035, P -0.177 ± 0.034, R -0.025 ± 0.022, T 0.041 ± 0.03
G15: F -0.427 ± 0.041, Q -0.362 ± 0.06, E -0.201 ± 0.051, H -0.549 ± 0.057, K -0.538 ± 0.063, V -0.682 ± 0.048, Y -0.776 ± 0.073, R -0.467 ± 0.037, D -0.276 ± 0.037, C -0.556 ± 0.045, P -0.266 ± 0.037, A -0.395 ± 0.04, S -0.493 ± 0.035, N -0.398 ± 0.048, L -0.62 ± 0.044, W -0.374 ± 0.048
C26: E -0.909 ± 0.059, I 0.032 ± 0.05, L -0.083 ± 0.026, D -0.868 ± 0.091, K -0.202 ± 0.04, A -0.067 ± 0.025, G -0.736 ± 0.029, P 0.015 ± 0.029, M -0.076 ± 0.033
N24: G 0.023 ± 0.019, L -0.427 ± 0.026, Y -0.226 ± 0.043, K -0.032 ± 0.029, I -0.89 ± 0.11, H -0.006 ± 0.037, D -0.024 ± 0.033, V -0.7 ± 0.034, A -0.14 ± 0.023, C -0.159 ± 0.033, P -0.922 ± 0.066, T -0.265 ± 0.03, R -0.064 ± 0.02, F -0.252 ± 0.045, W -0.467 ± 0.032, M -0.204 ± 0.03, E -0.065 ± 0.026, S -0.045 ± 0.023
T10: E -0.07 ± 0.032, Y -0.097 ± 0.064, N -0.075 ± 0.061, D -0.026 ± 0.057, G -0.01 ± 0.024, L -0.05 ± 0.033, H -0.064 ± 0.071, M -0.007 ± 0.042, W -0.086 ± 0.031, C 0.066 ± 0.041, A -0.075 ± 0.028, F 0.012 ± 0.085, I -0.081 ± 0.06, Q -0.111 ± 0.044, K -0.029 ± 0.04, V -0.113 ± 0.028, P -0.045 ± 0.044
T17: C -0.045 ± 0.034, M -0.046 ± 0.029, E -0.019 ± 0.028, K 0.015 ± 0.03, L 0.019 ± 0.023, A -0.079 ± 0.024, I 0.092 ± 0.03, S -0.051 ± 0.023, R -0.031 ± 0.021, V 0.003 ± 0.023, F -0.071 ± 0.045, H 0.031 ± 0.029, N -0.09 ± 0.032, P -1.07 ± 0.075, Q -0.001 ± 0.029, G -0.023 ± 0.021
D11: C -0.136 ± 0.057, P -0.069 ± 0.043, I -0.142 ± 0.074, H 0.075 ± 0.077, K -0.054 ± 0.061, F -0.251 ± 0.16, N 0.08 ± 0.05, T 0.055 ± 0.049, S 0.009 ± 0.04, M -0.11 ± 0.06, W -0.175 ± 0.038, E -0.05 ± 0.03, Q 0.021 ± 0.05, G -0.034 ± 0.029, R -0.023 ± 0.029, Y -0.22 ± 0.077, V -0.072 ± 0.032, A -0.027 ± 0.031, L -0.092 ± 0.038
K8: D -0.403 ± 0.045, M -0.087 ± 0.032, T -0.179 ± 0.032, F -0.291 ± 0.051, V -0.007 ± 0.023, R -0.021 ± 0.022, P -0.256 ± 0.034, G -0.242 ± 0.022, W -0.136 ± 0.026, Y -0.093 ± 0.043, I 0.002 ± 0.045, L -0.028 ± 0.024, S -0.169 ± 0.029, N -0.098 ± 0.043, A -0.071 ± 0.025, Q 0.004 ± 0.031, C -0.326 ± 0.038, E -0.505 ± 0.036
L23: H 0.028 ± 0.049, I 0.054 ± 0.057
